The labels stand for the following.
B1: human Drp1 (isoform 3) ΔCT6, last six residues (whole CT-SLiM) removed (enzyme, UniProt O00429-4 1-693, looked up)
chain: MEALIPVINKLQDVFNTVGADIIQLPQIVVVGTQSSGKSSVLESLVGRDLLPRGTGIVTRRPLILQLVHVSQEDKRKTTGEENGVEAEEWGKFLHTKNKLYTDFDEIRQEIENETERISGNNKGVSPEPIHLKIFSPNVVNLTLVDLPGMTKVPVGDQPKDIELQIRELILRFISNPNSIILAVTAANTDMATSEALKISREVDPDGRRTLAVITKLDLMDAGTDAMDVLMGRVIPVKLGIIGVVNRSQLDINNKKSVTDSIRDEYAFLQKKYPSLANRNGTKYLARTLNRLLMHHIRDCLPELKTRINVLAAQYQSLLNSYGEPVDDKSATLLQLITKFATEYCNTIEGTAKYIETSELCGGARICYIFHETFGRTLESVDPLGGLNTIDILTAIRNATGPRPALFVPEVSFELLVKRQIKRLEEPSLRCVELVHEEMQRIIQHCSNYSTQELLRFPKLHDAIVEVVTCLLRKRLPVTNEMVHNLVAIELAYINTKHPDFADACGLMNNNIEEQRRNRLARELPSAVSRDKVASGGGGVGDGVQEPTTGNWRGMLKTSKAEELLAEEKSKPIPIMPASPQKGHAVNLLDVPVPVARKLSAREQRDCEVIERLIKSYFLIVRKNIQDSVPKAVMHFLVNHVKDTLQSELVGQLYKSSLLDDLLTESEDMAQRRKEAADMLKALQGASQIIAEI
notes: Dynamin-related protein 1 (Drp1), human, isoform 3 (699 aa residues), with the last six residues R694-W699 removed; also called ΔCT6 Drp1; DCT6 Drp1
B2: mouse GIPC-1 (GAIP interacting protein, C-terminus 1), full length (natural protein, UniProt Q9Z0G0 1-333, looked up)
chain: MPLGLGRRKKAPPLVENEEAEPSRSGLGVGEPGPLGGSAAGESQMGLPPPPAALRPRLVFHTQLAHGSPTGRIEGFTNVKELYGKIAEAFRLPAAEVMFCTLNTHKVDMDKLLGGQIGLEDFIFAHVKGQRKEVEVFKSEEALGLTITDNGAGYAFIKRIKEGSVIDHIQLISVGDMIEAINGQSLLGCRHYEVARLLKELPRGRTFTLKLTEPRKAFDMISQRSAGGHPGSGPQLGTGRGTLRLRSRGPATVEDLPSAFEEKAIEKVDDLLESYMGIRDTELAATMVELGKDKRNPDELAEALDERLGDFAFPDEFVFDVWGAIGDAKVGRY
notes: N-terminal IDR, GH1, PDZ and GH2 domains; GST removed after purification by HRV3C proteolysis; also called full-length GIPC-1; source: subcloned in pGEX-6P1, expressed and purified using standard protocols; aggregates removed by centrifugation and/or gel filtration; not shown: GST, N-terminal, cleaved
B3: human dynamin-related protein 1 (Drp1) isoform 3, wild type, N-terminally His6-tagged (enzyme, UniProt O00429-4 1-699, looked up)
chain: MEALIPVINKLQDVFNTVGADIIQLPQIVVVGTQSSGKSSVLESLVGRDLLPRGTGIVTRRPLILQLVHVSQEDKRKTTGEENGVEAEEWGKFLHTKNKLYTDFDEIRQEIENETERISGNNKGVSPEPIHLKIFSPNVVNLTLVDLPGMTKVPVGDQPKDIELQIRELILRFISNPNSIILAVTAANTDMATSEALKISREVDPDGRRTLAVITKLDLMDAGTDAMDVLMGRVIPVKLGIIGVVNRSQLDINNKKSVTDSIRDEYAFLQKKYPSLANRNGTKYLARTLNRLLMHHIRDCLPELKTRINVLAAQYQSLLNSYGEPVDDKSATLLQLITKFATEYCNTIEGTAKYIETSELCGGARICYIFHETFGRTLESVDPLGGLNTIDILTAIRNATGPRPALFVPEVSFELLVKRQIKRLEEPSLRCVELVHEEMQRIIQHCSNYSTQELLRFPKLHDAIVEVVTCLLRKRLPVTNEMVHNLVAIELAYINTKHPDFADACGLMNNNIEEQRRNRLARELPSAVSRDKVASGGGGVGDGVQEPTTGNWRGMLKTSKAEELLAEEKSKPIPIMPASPQKGHAVNLLDVPVPVARKLSAREQRDCEVIERLIKSYFLIVRKNIQDSVPKAVMHFLVNHVKDTLQSELVGQLYKSSLLDDLLTESEDMAQRRKEAADMLKALQGASQIIAEIRETHLW
notes: Dynamin-related protein 1 (Drp1), human, isoform 3, 699 aa residues; the last six residues R694-W699 (RETHLW) are the CT-SLiM; also called WT Drp1; WT; not shown: His6 (36 aa-residue N-terminal tag), N-terminal, kept
B4: human Drp1 (isoform 3) ΔCT4, last four residues of the CT-SLiM removed (enzyme, UniProt O00429-4 1-695, looked up)
chain: MEALIPVINKLQDVFNTVGADIIQLPQIVVVGTQSSGKSSVLESLVGRDLLPRGTGIVTRRPLILQLVHVSQEDKRKTTGEENGVEAEEWGKFLHTKNKLYTDFDEIRQEIENETERISGNNKGVSPEPIHLKIFSPNVVNLTLVDLPGMTKVPVGDQPKDIELQIRELILRFISNPNSIILAVTAANTDMATSEALKISREVDPDGRRTLAVITKLDLMDAGTDAMDVLMGRVIPVKLGIIGVVNRSQLDINNKKSVTDSIRDEYAFLQKKYPSLANRNGTKYLARTLNRLLMHHIRDCLPELKTRINVLAAQYQSLLNSYGEPVDDKSATLLQLITKFATEYCNTIEGTAKYIETSELCGGARICYIFHETFGRTLESVDPLGGLNTIDILTAIRNATGPRPALFVPEVSFELLVKRQIKRLEEPSLRCVELVHEEMQRIIQHCSNYSTQELLRFPKLHDAIVEVVTCLLRKRLPVTNEMVHNLVAIELAYINTKHPDFADACGLMNNNIEEQRRNRLARELPSAVSRDKVASGGGGVGDGVQEPTTGNWRGMLKTSKAEELLAEEKSKPIPIMPASPQKGHAVNLLDVPVPVARKLSAREQRDCEVIERLIKSYFLIVRKNIQDSVPKAVMHFLVNHVKDTLQSELVGQLYKSSLLDDLLTESEDMAQRRKEAADMLKALQGASQIIAEIRE
notes: Dynamin-related protein 1 (Drp1), human, isoform 3 (699 aa residues), with the last four residues removed; also called ΔCT4 Drp1; ΔCT4/6

Data set [1] deals with the molecule itself. The data set can be described thus: SEC-MALS; nucleotide-free apo state in solution; Superose 6 10/300 GL column; 5 uM protein at injection (Fig. 1E), other injection concentrations in Fig. S2C.
Data set [2] deals with the molecule itself. In words: SEC-MALS; full-length GIPC-1, unliganded, 10 uM at injection; Superdex 200 10/300 GL column; dimer to monomers. In general terms: In gel filtration, larger molecules generally elute earlier.
Data set [3] deals with B3. In words: negative-stain EM; Drp1 (1.5 uM) pre-incubated with GIPC-1 (6 uM) for 15 min at room temperature, then CL-containing liposomes (50 uM total lipid) for 15 min; equimolar and 1:4 ratios. Conditions: both partners purified.
The target in data set [4] is B1. In words: negative-stain EM; 2-D class averages; apo Drp1 (2 uM) with GIPC-1 (8 uM), 1:4 molar ratio. To be noted: both partners purified.
Data set [5] deals with the molecule itself. In words: negative-stain EM; 2-D class averages of single particles; Drp1 at 2 uM, apo state and with 1 mM GTP.

The values that follow come from paper PMC10371074, “Allosteric control of dynamin-related protein 1-catalyzed mitochondrial fission through a conserved disordered C-terminal Short Linear Motif” (Research Square, 2023).

Where “and” joins values, the source holds several entries; their conditions need not be identical. Identical values can stand only once.

As a reminder, the stoichiometry N is a count of units in the complex or per binding partner. Turning to B1, the “stoichiometry N” value in data set [1] is 2 and 4.

B2: the “stoichiometry N” value in data set [2] was 2. The binding result in data set [3] and in data set [4] was “binds” throughout.

For B3, the figures for the “stoichiometry N” value in data set [1] and in data set [5] were 4 and 2, respectively.

Regarding B4, in data set [1], the “stoichiometry N” value is 2 and 4.
